Where a SMILES comes first, the peptide text is derived from it. [ ]: non-standard residue; d: D form. The star is where a group is joined. X2 = COc1cc2cc(c1Cl)N(C)C(=O)C[C@H](OC(=O)[C@H](C)N(C)C(=O)CCSSCCC(=O)NCCOCCOCCn1nnc3c1CC[C@H]1[C@@H](CC3)[C@@H]1COC(=O)*)[C@]1(C)O[C@H]1[C@H](C)[C@@H]1C[C@@](O)(NC(=O)O1)[C@H](OC)/C=C/C=C(\C)C2; X1 = COc1cc2cc(c1Cl)N(C)C(=O)C[C@H](OC(=O)[C@H](C)N(C)C(=O)CCSSCCC(=O)*)[C@]1(C)O[C@H]1C(C)[C@@H]1C[C@@](O)(NC(=O)O1)[C@H](OC)/C=C/C=C(\C)C2; d(hArg(Et2)) = CCN=C(NCC)NCCCC[C@@H](N)C(=O)O; dPhe(4-Cl) = N[C@H](Cc1ccc(Cl)cc1)C(=O)O; d2Nal = N[C@H](Cc1ccc2ccccc2c1)C(=O)O; d3Pal = N[C@H](Cc1cccnc1)C(=O)O

Data set [1] addresses T1, LHRHR, also known as GnRHR (Homo sapiens, UniProt P30968).
T1 sequence (P30968 1-328): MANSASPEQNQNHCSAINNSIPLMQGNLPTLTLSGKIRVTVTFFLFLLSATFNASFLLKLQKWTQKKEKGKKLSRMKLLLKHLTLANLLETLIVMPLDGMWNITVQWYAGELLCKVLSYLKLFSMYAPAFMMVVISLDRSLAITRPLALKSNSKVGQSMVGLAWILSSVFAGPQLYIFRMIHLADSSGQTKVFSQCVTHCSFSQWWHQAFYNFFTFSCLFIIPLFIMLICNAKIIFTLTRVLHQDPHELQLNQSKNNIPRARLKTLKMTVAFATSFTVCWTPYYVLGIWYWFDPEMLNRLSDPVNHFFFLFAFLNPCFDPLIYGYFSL
Put plainly: Radioligand binding assay ([125I]-[D-Trp6]-LHRH displacement). The method, then:
An amount of 2 μg of a purified membrane with LHRHR, also known as GnRHR, was incubated with 0.18 nM [125I]-[D-Trp6]-LHRH and compounds of interest in the incubation buffer (50 mM HEPES, pH 7.4, 5 mM MgCl2, 1 mM CaCl2, and 0.2% BSA). The reaction mixtures were incubated for 1 h at 25° C. and then were transferred to a 96-well GF/B filter plate (Millipore Corp., Billerica, MA, USA), which were terminated by manifold filtration and washed with a wash buffer (50 mM HEPES, pH 7.4, and 100 mM NaCl) for six times. The radioactivity bound to the filter was measured by a Topcount® system (PerkinElmer Inc., Waltham, MA, USA). IC50 values were determined by the concentration of a compound required to inhibit 50% of the specific binding of [125I]-[D-Trp6]-LHRH and calculated by nonlinear regression (GraphPad Software, San Diego, CA, USA). The design of these drug conjugates is to actively targeting LHRH-receptor at tumor site and facilitate drug conjugate accumulation in situ. Therefore, selective and strong binding of the synthetic peptide ligand with the receptor is important to allow enrichment of these conjugates, followed by release of the drug payload in the tumor microenvironment.
Compounds of the invention have a binding as low as 0.17 nM.

A short description of data set [2]: In vivo pharmacokinetic profile, mouse single IV dose. Conditions: for Vss (I/kg) / clearance / AUC(0-t): Mouse IV, dose 5 mg/kg; for clearance / AUC(0-t): in vivo; for AUC(0-t): read-out: AUC(0-24 hr); for AUC coverage: single intravenous dose. The method, then:
Pharmacokinetic properties of compounds of the invention were measured following the procedures described in Liu et al., Bioconjugate Chem. 2017, 28, 7, 1878-1892.

Data set [3] deals with HCC1806 triple negative breast cancer. Description: In vivo anti-tumor activity in triple-negative breast HCC1806 tumor model. On the set-up: species or system immunodeficient nude mice. Conditions: 1 mg/kg to 2.5 mg/kg, every other week, once a week, or twice a week. The method, then: In vivo anti-tumor activity of Compound 16 was evaluated in triple-negative breast HCC1806 tumor model. HCC1806 cells were suspended with RPMI 1640 medium (phenol red free) and Matrigel™ in 1:1 ratio, and implanted subcutaneously (1×10^6 cells/flank) into the left flank of the immunodeficient nude mice. The tumor volume in mm^3 was calculated by the formula: Volume=(length×width^2)/2. Tumor-bearing mice were randomized (n=8 per group) when the average tumor volume was approximately at 210 mm^3 on day 10 after inoculation. Compound 16 was dissolved in DMA, cremorphor and 5% dextrose solution (1:2:27, v/v/v). Tumor-bearing mice were intravenously administered once weekly (qw) or bi-weekly (b2w) with multiple doses of vehicle control (5 mL/kg) and DBPR376 (2.5 mg/kg). Tumor size and body weight of each animal were measured twice weekly during the study period.
Compounds 8, 9, 11, 14, 16, 25, 26, and 27 were evaluated following the procedure described above.

As a reminder, the IC50 is the point on the concentration scale where inhibition reaches its midpoint. A higher IC50 goes with weaker potency. The term clearance denotes the volume of plasma or blood freed of the substance per unit of time. Lower therefore signals inefficient removal. Compound `COc1cc2cc(c1Cl)N(C)C(=O)C[C@H](OC(=O)[C@H](C)N(C)C(=O)CCSSCCC(=O)NCCCC[C@@H](NC(=O)[C@H](Cc1ccc(O)cc1)NC(=O)[C@H](CO)NC(=O)[C@@H](Cc1cccnc1)NC(=O)[C@@H](Cc1ccc(Cl)cc1)NC(=O)[C@@H](Cc1ccc3ccccc3c1)NC(C)=O)C(=O)N[C@@H](CC(C)C)C(=O)N[C@@H](CCCNC(=N)N)C(=O)N1CCC[C@H]1C(=O)N[C@H](C)C(N)=O)[C@]1(C)O[C@H]1C(C)[C@@H]1C[C@@](O)(NC(=O)O1)[C@H](OC)/C=C/C=C(\C)C2` (stereo partly shown) [Compound 8] (Ac-[d2Nal][dPhe(4-Cl)][d3Pal]SY[dK](X1)LRP[dA]-NH2) yielded an IC50 in data set [1] of 0.1 to 1 nM. For the same compound, in data set [2], the “Vss (I/kg)” value was determined as 0.25 I/kg, the clearance is 1.6 mL/min/kg, the AUC(0-t) was determined as 55100 ng·h/mL and the AUC coverage entry was “extensive AUC coverage”. Also, the “inhibition of in vivo tumor growth” value in data set [3] was “effectively inhibited”.
As for `COc1cc2cc(c1Cl)N(C)C(=O)C[C@H](OC(=O)[C@H](C)N(C)C(=O)CCSC(=O)c1ccc(CN(CCOCCOCCn3nnc4c3CC[C@@H]3[C@H](CC4)[C@H]3COC(=O)N(CCCC[C@H](NC(=O)[C@H](CC(C)C)NC(=O)[C@@H](Cc3ccc(NC(N)=O)cc3)NC(=O)[C@H](Cc3ccc(NC(=O)[C@@H]4CC(=O)NC(=O)N4)cc3)NC(=O)[C@H](CO)NC(=O)[C@@H](Cc3cccnc3)NC(=O)[C@@H](Cc3ccc(Cl)cc3)NC(=O)[C@@H](Cc3ccc4ccccc4c3)NC(C)=O)C(=O)N3CCC[C@H]3C(=O)N[C@H](C)C(N)=O)C(C)C)C(=O)C3(c4ccc(Cl)cc4)CCCCC3)cc1)[C@]1(C)O[C@H]1[C@H](C)[C@@H]1C[C@@](O)(NC(=O)O1)[C@H](OC)/C=C/C=C(\C)C2` [Compound 9], in data set [2], the “Vss (I/kg)” value is given as 0.2 I/kg, the clearance was 6.7 mL/min/kg, the AUC(0-t) was 12500 ng·h/mL and the AUC coverage result was “extensive AUC coverage”. For the same compound, the “inhibition of in vivo tumor growth” value in data set [3] was “effectively inhibited”.
As to `CCNC(=NCCCC[C@@H](NC(=O)[C@H](CC(C)C)NC(=O)[C@@H](CCCCNC(=O)OC[C@H]1[C@@H]2CCc3nnn(CCOCCOCCN(Cc4ccc(C(=O)SCCC(=O)N(C)[C@@H](C)C(=O)O[C@H]5CC(=O)N(C)c6cc(cc(OC)c6Cl)C/C(C)=C/C=C/[C@@H](OC)[C@@]6(O)C[C@H](OC(=O)N6)[C@@H](C)[C@@H]6O[C@@]56C)cc4)C(=O)C4(c5ccc(Cl)cc5)CCCCC4)c3CC[C@@H]21)NC(=O)[C@H](Cc1ccc(O)cc1)NC(=O)[C@H](CO)NC(=O)[C@@H](Cc1cccnc1)NC(=O)[C@@H](Cc1ccc(Cl)cc1)NC(=O)[C@@H](Cc1ccc2ccccc2c1)NC(C)=O)C(=O)N1CCC[C@H]1C(=O)N[C@H](C)C(N)=O)NCC` [Compound 11], in data set [2], the “Vss (I/kg)” value was 0.1 I/kg, the clearance is 4 mL/min/kg and the AUC(0-t) worked out at 21000 ng·h/mL. For the same compound, in data set [3], the “inhibition of in vivo tumor growth” value is on record as “effectively inhibited”.
`CCNC(=NCCCC[C@@H](NC(=O)[C@H](CC(C)C)NC(=O)[C@@H](CCCCNC(=O)CCSSCCC(=O)N(C)[C@@H](C)C(=O)O[C@H]1CC(=O)N(C)c2cc(cc(OC)c2Cl)C/C(C)=C/C=C/[C@@H](OC)[C@@]2(O)C[C@H](OC(=O)N2)C(C)[C@@H]2O[C@@]12C)NC(=O)[C@H](Cc1ccc(O)cc1)NC(=O)[C@H](CO)NC(=O)[C@@H](Cc1cccnc1)NC(=O)[C@@H](Cc1ccc(Cl)cc1)NC(=O)[C@@H](Cc1ccc2ccccc2c1)NC(C)=O)C(=O)N1CCC[C@H]1C(=O)N[C@H](C)C(N)=O)NCC` (stereo partly shown) [Compound 14] (Ac-[d2Nal][dPhe(4-Cl)][d3Pal]SY[dK](X1)L[d(hArg(Et2))]P[dA]-NH2) showed an IC50 in data set [1] of 1 to 10 nM. Besides, in data set [2], the “Vss (I/kg)” value is 0.2 I/kg, the clearance worked out at 0.9 mL/min/kg, the AUC(0-t) was 88300 ng·h/mL and the AUC coverage entry was “extensive AUC coverage”. The “inhibition of in vivo tumor growth” value in data set [3] is on record as “effectively inhibited”.
As to `COc1cc2cc(c1Cl)N(C)C(=O)C[C@H](OC(=O)[C@H](C)N(C)C(=O)CCSC(=O)c1ccc(CN(CCOCCOCCn3nnc4c3CC[C@H]3[C@@H](CC4)[C@@H]3COC(=O)NCCCC[C@@H](NC(=O)[C@H](Cc3ccc(O)cc3)NC(=O)[C@H](CO)NC(=O)[C@@H](Cc3cccnc3)NC(=O)[C@@H](Cc3ccc(Cl)cc3)NC(=O)[C@@H](Cc3ccc4ccccc4c3)NC(C)=O)C(=O)N[C@@H](CC(C)C)C(=O)N[C@@H](CCCNC(=N)N)C(=O)N3CCC[C@H]3C(=O)N[C@H](C)C(N)=O)C(=O)C3(c4ccc(Cl)cc4)CCCCC3)cc1)[C@]1(C)O[C@H]1[C@H](C)[C@@H]1C[C@@](O)(NC(=O)O1)[C@H](OC)/C=C/C=C(\C)C2` [Compound 16], in data set [2], the “Vss (I/kg)” value is 0.5 I/kg, the clearance came out at 15.5 mL/min/kg and the AUC(0-t) is 4860 ng·h/mL. For the same compound, the “inhibition of in vivo tumor growth” value in data set [3] is listed as “effectively inhibited”.
For `COc1cc2cc(c1Cl)N(C)C(=O)C[C@H](OC(=O)[C@H](C)N(C)C(=O)CCSSCCC(=O)NCCOCCOCCn1nnc3c1CC[C@H]1[C@@H](CC3)[C@@H]1COC(=O)NCCCC[C@@H](NC(=O)[C@H](Cc1ccc(O)cc1)NC(=O)[C@H](CO)NC(=O)[C@@H](Cc1cccnc1)NC(=O)[C@@H](Cc1ccc(Cl)cc1)NC(=O)[C@@H](Cc1ccc3ccccc3c1)NC(C)=O)C(=O)N[C@@H](CC(C)C)C(=O)N[C@@H](CCCNC(=N)N)C(=O)N1CCC[C@H]1C(=O)N[C@H](C)C(N)=O)[C@]1(C)O[C@H]1[C@H](C)[C@@H]1C[C@@](O)(NC(=O)O1)[C@H](OC)/C=C/C=C(\C)C2` [Compound 25] (Ac-[d2Nal][dPhe(4-Cl)][d3Pal]SY[dK](X2)LRP[dA]-NH2), the “inhibition of in vivo tumor growth” value in data set [3] is given as “effectively inhibited”.
As for `CCNC(=NCCCC[C@@H](NC(=O)[C@H](CC(C)C)NC(=O)[C@@H](CCCCNC(=O)OC[C@H]1[C@@H]2CCc3nnn(CCOCCOCCNC(=O)CCSSCCC(=O)N(C)[C@@H](C)C(=O)O[C@H]4CC(=O)N(C)c5cc(cc(OC)c5Cl)C/C(C)=C/C=C/[C@@H](OC)[C@@]5(O)C[C@H](OC(=O)N5)[C@@H](C)[C@@H]5O[C@@]45C)c3CC[C@@H]21)NC(=O)[C@H](Cc1ccc(O)cc1)NC(=O)[C@H](CO)NC(=O)[C@@H](Cc1cccnc1)NC(=O)[C@@H](Cc1ccc(Cl)cc1)NC(=O)[C@@H](Cc1ccc2ccccc2c1)NC(C)=O)C(=O)N1CCC[C@H]1C(=O)N[C@H](C)C(N)=O)NCC` [Compound 26] (Ac-[d2Nal][dPhe(4-Cl)][d3Pal]SY[dK](X2)L[d(hArg(Et2))]P[dA]-NH2), the “inhibition of in vivo tumor growth” value in data set [3] is “effectively inhibited”.
For `COc1cc2cc(c1Cl)N(C)C(=O)C[C@H](OC(=O)[C@H](C)N(C)C(=O)CCSC(=O)c1ccc(CN(CCOCCOCCn3nnc4c3CC[C@H]3[C@@H](CC4)[C@@H]3COC(=O)NCCCC[C@@H](NC(=O)[C@H](Cc3ccc(O)cc3)NC(=O)[C@H](CO)NC(=O)[C@@H](Cc3cccnc3)NC(=O)[C@@H](Cc3ccc(Cl)cc3)NC(=O)[C@@H](Cc3ccc4ccccc4c3)NC(C)=O)C(=O)N[C@@H](CC(C)C)C(=O)N[C@H](CCCNC(=N)N)C(=O)N3CCC[C@H]3C(=O)N[C@H](C)C(N)=O)C(=O)C3(c4ccc(Cl)cc4)CCCCC3)cc1)[C@]1(C)O[C@H]1[C@H](C)[C@@H]1C[C@@](O)(NC(=O)O1)[C@H](OC)/C=C/C=C(\C)C2` [Compound 27], in data set [2], the “Vss (I/kg)” value is recorded as 0.1 I/kg, the clearance was determined as 6.4 mL/min/kg and the AUC(0-t) stood at 15900 ng·h/mL. In addition, the “inhibition of in vivo tumor growth” value in data set [3] is “effectively inhibited”.

Source of the values: US20250121078A1, “PEPTIDE DRUG CONJUGATES AND THEIR USES” (priority 2023, published 2025).
